Reference: paper doi:10.1101/2025.02.18.638599

Target: AcrA S273C (Escherichia coli) (UniProt P0AE06)
Experiment: cryo-EM structure

- stoichiometry N: 6
Substance: AcrA S273C (from UniProt P0AE06 25-397) (natural protein)
